In US20200172619A1 (UNIVERSIT T STUTTGART, published 2020):

Assays:
[1] = target: T1, TNFR1 on the surface of cells (HT1080, HeLa, Kym-1) (human, UniProt P19438 30-455); experiment: cell-based or functional assay
T1 sequence (looked up): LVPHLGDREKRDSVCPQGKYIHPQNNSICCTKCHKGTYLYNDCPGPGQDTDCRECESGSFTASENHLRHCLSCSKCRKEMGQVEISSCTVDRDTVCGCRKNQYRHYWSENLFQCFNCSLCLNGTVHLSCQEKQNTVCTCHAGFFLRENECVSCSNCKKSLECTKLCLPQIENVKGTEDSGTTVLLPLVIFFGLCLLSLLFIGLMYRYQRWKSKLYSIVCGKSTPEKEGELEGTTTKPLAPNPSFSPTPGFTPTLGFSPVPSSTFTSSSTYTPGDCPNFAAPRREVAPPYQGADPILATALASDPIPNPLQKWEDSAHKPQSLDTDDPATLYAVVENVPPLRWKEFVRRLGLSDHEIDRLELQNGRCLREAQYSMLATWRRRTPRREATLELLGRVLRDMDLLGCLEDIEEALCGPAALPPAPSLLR

[2] = target: T1, TNFR1 on the surface of cells (HT1080, …); experiment: cell-based or functional assay; remark: listed apart in the source
[3] = target: T1, TNFR1 on the surface of cells (HT1080, …); experiment: cell-based or functional assay; remark: listed apart in the source
[4] = target: T2, human TNFR1-Fc fusion protein (human, UniProt P19438 30-211); experiment: ELISA, immobilized human TNFR1-Fc
T2 construct: Provided by Baliopharm AG; Coated at 1 ug/ml in the ELISA; also called huTNFR1-Fc; immobilized human TNFR1; not shown: Fc part not described
T2 sequence (looked up): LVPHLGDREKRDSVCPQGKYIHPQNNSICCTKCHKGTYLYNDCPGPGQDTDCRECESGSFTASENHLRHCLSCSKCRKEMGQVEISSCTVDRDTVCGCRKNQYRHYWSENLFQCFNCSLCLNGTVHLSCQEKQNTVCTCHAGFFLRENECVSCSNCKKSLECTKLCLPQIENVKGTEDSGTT
Protocol: (§1) Microtiter plates were coated with 100 μl of TNFFR1-Fc fusion protein (1 μg/ml in PBS) and incubated at 4° C. overnight. The residual binding sites were blocked with 2% MPBS (skim milk in PBS, 200 μl per well) at room temperature for 2 hours and subsequently washed twice with PBS. 100 μl of the samples diluted in 2% MPBS were incubated at room temperature for 1 hour prior to the last incubation step with 100 μl of the HRP conjugated detection antibodies in 2% MPBS. Bound protein was detected with 100 μl TMB substrate solution, the HRP-reaction was stopped by the addition of 50 μl 1 M H2SO4 and the absorption at the wavelength of 450 nm was measured using the Infinite microtiter plate reader (TECAN, Maennedorf, Switzerland). Between each incubation step and in advance of the detection, the plates were washed three times with PBST and twice with PBS.

[5] = target: T2, human TNFR1-Fc fusion protein; experiment: ELISA, immobilized human TNFR1-Fc; remark: listed apart in the source
[6] = target: T2, human TNFR1-Fc fusion protein; experiment: QCM (Attana), real-time binding, one-to-one fit
Protocol: (§2) FIG. 36. […] Five concentrations between 128 nM and 4 nM were used to generate the kinetic data in b) and a one-to-one binding algorithm was employed for fitting.

[7] = target: T2, human TNFR1-Fc fusion protein; experiment: ELISA, human TNFR1-Fc (CHO-produced protein, Example 14)
Protocol: as §1

[8] = target: T2, human TNFR1-Fc fusion protein; experiment: QCM (Attana), real-time binding, 128 nM to 4 nM, one-to-one fit
Protocol: as §2

[9] = target: T1, TNFR1 on the surface of cells (HT1080, …); experiment: cell-based or functional assay; remark: listed apart in the source
[10] = target: T2, human TNFR1-Fc fusion protein; experiment: ELISA, human TNFR1-Fc fusion protein
Protocol: Microtiter plates were coated with 100 μl of TNFFR1-Fc fusion protein (1 μg/ml in PBS) and incubated at 4° C. overnight.

[11] = target: T3, CD3 on the surface of CD3-transfected Jurkat cells; experiment: flow cytometry on CD3-transfected Jurkat cells
T3 construct: whole, on cells; also called CD3 expressing Jurkat cells
Protocol: (§3) Cells were detached and transferred to a 96 well microtiter plate at a concentration of 100.000-250.000 per well in 100 μl PBA (2% FCS, 0.2% NaN3 in sterile PBS).

[12] = target: T1, TNFR1 on the surface of cells (HT1080, …); experiment: flow cytometry on TNFR1-expressing HT1080 cells
Protocol: as §3

T3 sequence (P07766 23-207): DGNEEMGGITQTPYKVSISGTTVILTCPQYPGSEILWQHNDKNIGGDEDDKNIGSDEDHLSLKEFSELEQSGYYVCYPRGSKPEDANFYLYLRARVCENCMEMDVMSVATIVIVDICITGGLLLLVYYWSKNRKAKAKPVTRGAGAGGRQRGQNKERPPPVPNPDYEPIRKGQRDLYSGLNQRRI

B1: Fv13.7x-Fc1k (Fc fusion)
chain 1: HVQLVQSGAEVKKPGSSVKVSCKASGYTFTDFYINWVRQAPGQGLEWIGEIVPSQGEAKYNDKFKARVTITADKSTSTAYMELSSLRSEDTAVYYCARWDFLDYWGQGTTVTVSSGTGGGSGPSVFLFPPKPKDTLMISRTPEVTCVVVDVSHEDPEVKFNWYVDGVEVHNAKTKPREEQYNSTYRVVSVLTVLHQDWLNGKEYKCKVSNKGLPSSIEKTISKAKGQPREPSVFIFPPSDEQLKSGTASVVCLVNNFYPRDIAVEWEVDNALQSGNSQESVTEQDSKDSTYSLSSTLTLSKADYEKHKVYSCSVMHEALHNHYTQKSFNRGEC
chain 2: DVQMTQSPSSLSASVGDRVTITCRSSQSLLHSNGNTYLHWYQQKPGKAPKLLIYTVSNRFSGVPSRFSGSGSGTDFTLTISSLQPEDFATYYCSQSTHVPYTFGGGTKVEIKGTGGGSGPSVFLFPPKPKDTLMISRTPEVTCVVVDVSHEDPEVKFNWYVDGVEVHNAKTKPREEQYNSTYRVVSVLTVLHQDWLNGKEYKCKVSNKGLPSSIEKTISKAKGQPREPSVFPLAPSSKSTSGGTAALGCLVKDYFPSDIAVEWESGALTSGVHTFPAVLQSSGLYSLSSVVTVPSSSLGTQTYSCSVMHEALHNHYTQKSVEPKSC
notes: CH2 carries A327G, A330S and P331S (EU numbering)
B1 was tested, and the “factor of increased inhibitory potential (IL-8 inhibition) compared to ATROSAB” value [1] was 2.8 fold, the “fold reduced bioactivity (IL-8 inhibition) compared to Fab13.7” value [1] was 3.7 fold and the “IL-8 Inhibition IC50” value [2] was 48 nM. The “IC50, Cell death induction [nM] (Kym-1 cells, 0.01 nM TNF)” value [3] was 16.2 nM, the “IC50, IL-6 [nM] (HeLa cells, 0.1 nM TNF)” value [3] was 54.5 nM and the “IC50, IL-8 [nM] (HT1080 cells, 0.1 nM TNF)” value [3] was 24.2 nM. For the same binder, the “fold reduced binding affinity compared with Fab13.7” value [4] was 2.1 fold, the EC50 [5] was 1.9 nM and the koff [6] was 0.000983 s⁻¹. It also gave a kon [6] of 369000 M⁻¹ s⁻¹, an EC50 [7] of 0.37 nM and a Kd [8] of 2.66 nM.

B2: 13.7N-CD3N-hFc1k (bispecific antibody)
chain 1: HVQLVQSGAEVKKPGSSVKVSCKASGYTFTDFYINWVRQAPGQGLEWIGEIVPSQGEAKYNDKFKARVTITADKSTSTAYMELSSLRSEDTAVYYCARWDFLDYWGQGTTVTVSSGGGGSGGGGSGGGGSDVQMTQSPSSLSASVGDRVTITCRSSQSLLHSNGNTYLHWYQQKPGKAPKLLIYTVSNRFSGVPSRFSGSGSGTDFTLTISSLQPEDFATYYCSQSTHVPYTFGGGTKVEIKAAADKTHTCPPCPAPPVAGPSVFLFPPKPKDTLMISRTPEVTCVVVDVSHEDPEVKFNWYVDGVEVHNAKTKPREEQYNSTYRVVSVLTVLHQDWLNGKEYKCKVSNKGLPSSIEKTISKAKGQPREPSVFPLAPSSKSTSGGTAALGCLVKDYFPSDIAVEWESGALTSGVHTFPAVLQSSGLYSLSSVVTVPSSSLGTQTYSCSVMHEALHNHYTQKSVEPKSC
chain 2: DIQMTQSPSSLSASVGDRVTITCRASQDIRNYLNWYQQKPGKAPKLLIYYTSRLHSGVPSRFSGSGSGTDFTFTISSLQPEDIATYYCQQGNTLPWTFGQGTKLEIKRGGGGSGGGGSGGGGSQVQLVQSGAEVKKPGSSVKVSCKASGGTFSGYTMNWVRQAPGQGLEWMGLINPYKGVSTYNGKFKDRVTITADKSTSTAYMELSSLRSEDTAVYYCARSGYYGDSDWYFDVWGQGTLVTVSSSGGGSGGGGSDKTHTCPPCPAPPVAGPSVFLFPPKPKDTLMISRTPEVTCVVVDVSHEDPEVKFNWYVDGVEVHNAKTKPREEQYNSTYRVVSVLTVLHQDWLNGKEYKCKVSNKGLPSSIEKTISKAKGQPREPSVFIFPPSDEQLKSGTASVVCLVNNFYPRDIAVEWEVDNALQSGNSQESVTEQDSKDSTYSLSSTLTLSKADYEKHKVYSCSVMHEALHNHYTQKSFNRGECGGGGSGGGGSGGGGSGTGGSGG
notes: also called scFv13.7-CD3-Hinge-Fc1k
B2 was tested, and the “Cytotxicity IC50” value [9] was 0.8 nM, the EC50 [10] was 3.5 nM and the EC50 [11] was 1.6 nM. The EC50 [12] was 3.7 nM.
